Assay results taken from US20180312587A1 (ADURO BIOTECH HOLDINGS EUROPE B V, published 2018).
Values belong to the binder of their own block, whether it stands above or below them.

How the values were obtained:
[1] = target: T1, hSIRPα expressed on primary human cells (human, UniProt P78324 31-504); test: flow cytometry on CD14+ enriched monocytes, human donor 2, AF647 goat-anti-mouse IgG
T1 construct: whole, on cells; also called hSIRPα on primary human CD14+ monocytes; on primary human granulocytes
Protocol: Next, the binding of hSIRPα.40A to hSIRPα expressed on primary human CD14⁺ monocytes was investigated. In addition, the ability of hSIRPα.40A to block the interaction between hSIRPα and recombinant hCD47/Fc-protein was assessed. For this purpose, CD14+ monocytes were isolated from Ficoll-purified human peripheral blood mononuclear cells (PBMCs) using RosetteSep human monocyte enrichment cocktail (Stemcell). The percentage of monocytes present after the enrichment was determined by flow cytometry on the FACSVerse (BD Biosciences) based on CD14 staining using an APC-Cy7-conjugated mouse-anti-human CD14 detection antibody (BD Biosciences). […] After this labeling procedure, cells were washed two times, resuspended in PBS/1% BSA containing 0.1 μg/mL DAPI (BioLegend), and analysed by flow cytometry on the FACSVerse (BD Biosciences). Data were processed and analysed with FlowJo V10 software (FlowJo, LLC).
To assess the blocking ability of hSIRPα.40A, CD14+ enriched monocytes cells were seeded in 96-well round bottomed tissue culture plates and incubated for 45 minutes with FcR Blocking Reagent (Miltenyi Biotec) and hSIRPα.40A antibody (20 μg/mL and dilutions thereof) in PBS/1% BSA at 4° C. […] After this labeling procedure, cells were washed two times, resuspended in PBS/1% BSA containing 0.1 μg/mL DAPI (BioLegend), and analysed by flow cytometry on the FACSVerse (BD Biosciences). […]

human SIRPα variant 1 = target: T2, human SIRPα variant 1 (human, UniProt P78324 31-504); test: CELISA, CHO-K1 transfectants; average of two experiments
T2 construct: full length ORF on transfected CHO-K1 or HEK293 cells; entry includes the signal peptide; also called hSIRPαV1; SIRPαV1
Protocol: (§1) The binding specificity of antibody hSIRPα.50A to hSIRPα was compared antibody KWAR23 (Canadian Patent 2939293 A1), in a CELISA format. CHO-K1 cells were transiently transfected with hSIRPαV1, hSIRPαV2, hSIRPβ1, and hSIRPγ (GenBank accession: NM_018556.3) (SEQ ID NO: 39) cDNAs. Subsequently, hSIRPα binding was assessed by CELISA using CHO-K1.hSIRPαV1, CHO-K1.hSIRPαV2, CHO-K1.hSIRPβ1, and CHO-K1.hSIRPγ cells. Detection of bound antibody was performed with goat-anti-mouse IgG-HRP (Southern Biotech) for mouse antibodies including hSIRPα.50A and control antibodies or, alternatively, with goat-anti-human IgG-HRP conjugate (Jackson Immuno Research) for the KWAR23 antibody. KWAR23 (SEQ ID NO: 130; SEQ ID NO: 131) was expressed as a chimeric human IgG4 kappa antibody in CHO cells. As shown in FIG. 2 and the following Table 9, KWAR23 antibody cross-reacts with all members of the SIRP receptor family tested: it binds to hSIRPαV1, hSIRPαV2, hSIRPβ1, and hSIRPγ.
(§2) In addition, the specificity of hSIRPα.50A for all known of hSIRPα alleles (allelic variants as described by Takenaka et al., 2007, Nat Immunol. 8:1313-1323) was further investigated by CELISA using the same strategy as above. To this end, hSIRPα.50A binding was assessed using CHO-K1 cells that were transiently transfected with cDNAs encoding full length hSIRPαV1, hSIRPαV2, hSIRPαV3 (NA07056_V3) (SEQ ID NO: 43), hSIRPαV4 (NA11832_V4) (SEQ ID NO: 45), hSIRPαV5 (NA18502_V5) (SEQ ID NO: 47), hSIRPαV6 (NA18507_V6) (SEQ ID NO: 49), hSIRPαV8 (NA18570_V8) (SEQ ID NO: 51), and hSIRPαV9 (NA18943_V9) (SEQ ID NO: 53).

human SIRPα variant 2 = target: T3, human SIRPα variant 2 (human, UniProt P78324 31-504); test: as above
T3 construct: full length ORF on transfected CHO-K1 cells; also called hSIRPαV2; SIRPαV2
Protocol: as §1, §2

hSIRPαV3 (NA07056_V3) = target: T4, hSIRPαV3 (NA07056_V3) (human, UniProt P78324 31-504); test: as above
T4 construct: also called human SIRPαV3
Protocol: as §1, §2

hSIRPαV5 (NA18502_V5) = target: T5, hSIRPαV5 (NA18502_V5) (human, UniProt P78324 31-504); test: as above
T5 construct: also called human SIRPαV5
Protocol: as §1, §2

hSIRPαV6 (NA18507_V6) = target: T6, hSIRPαV6 (NA18507_V6) (human, UniProt P78324 31-504); test: as above
T6 construct: also called human SIRPαV6
Protocol: as §1, §2

hSIRPαV8 (NA18570_V8) = target: T7, hSIRPαV8 (NA18570_V8) (human, UniProt P78324 31-504); test: as above
T7 construct: also called human SIRPαV8
Protocol: as §1, §2

hSIRPαV9 (NA18943_V9) = target: T8, hSIRPαV9 (NA18943_V9) (human, UniProt P78324 31-504); test: as above
T8 construct: also called human SIRPαV9
Protocol: as §1, §2

T8 sequence (P78324 31-504 G109S limits assumed): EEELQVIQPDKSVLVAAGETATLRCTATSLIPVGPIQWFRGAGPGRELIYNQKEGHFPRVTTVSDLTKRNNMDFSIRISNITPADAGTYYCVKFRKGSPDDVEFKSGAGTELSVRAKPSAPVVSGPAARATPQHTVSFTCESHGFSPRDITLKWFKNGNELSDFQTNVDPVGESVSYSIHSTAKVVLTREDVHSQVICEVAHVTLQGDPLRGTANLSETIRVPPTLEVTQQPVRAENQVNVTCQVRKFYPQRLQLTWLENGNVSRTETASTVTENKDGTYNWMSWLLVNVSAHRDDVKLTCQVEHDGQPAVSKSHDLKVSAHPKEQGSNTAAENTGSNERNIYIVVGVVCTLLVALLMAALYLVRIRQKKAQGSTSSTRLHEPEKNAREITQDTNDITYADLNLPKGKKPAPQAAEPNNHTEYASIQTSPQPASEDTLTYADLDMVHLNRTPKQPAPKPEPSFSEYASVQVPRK
T5 sequence (P78324 other isoform, or with tags, fused parts or gaps limits assumed): as the sequence (P78324 31-504 G109S limits assumed) above, with S12F, S79G counted along it
T3 sequence (P78324 other isoform, or with tags, fused parts or gaps mutant limits assumed): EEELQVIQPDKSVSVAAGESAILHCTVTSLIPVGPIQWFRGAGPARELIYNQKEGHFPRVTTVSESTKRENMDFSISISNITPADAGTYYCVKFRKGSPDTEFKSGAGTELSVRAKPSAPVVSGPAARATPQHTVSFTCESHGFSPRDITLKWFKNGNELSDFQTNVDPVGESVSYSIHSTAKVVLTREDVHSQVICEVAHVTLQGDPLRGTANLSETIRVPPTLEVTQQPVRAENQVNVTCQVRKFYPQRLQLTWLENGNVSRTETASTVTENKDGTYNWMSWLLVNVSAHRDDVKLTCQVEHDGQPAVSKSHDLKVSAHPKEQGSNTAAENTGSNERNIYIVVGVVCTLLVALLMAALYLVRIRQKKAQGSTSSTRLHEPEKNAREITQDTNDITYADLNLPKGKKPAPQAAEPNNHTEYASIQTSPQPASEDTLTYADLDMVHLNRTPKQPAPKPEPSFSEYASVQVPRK
T2 sequence (P78324 31-504 limits assumed, change not shown): as the sequence (P78324 31-504 G109S limits assumed) above, with S79G counted along it
T1 sequence (P78324 31-504): as the sequence (P78324 31-504 G109S limits assumed) above, with S79G counted along it
T7 sequence (P78324 other isoform, or with tags, fused parts or gaps limits assumed): as the sequence (P78324 other isoform, or with tags, fused parts or gaps mutant limits assumed) above, with S14L, S20T, I22T, H24R, V27A counted along it
T4 sequence (P78324 other isoform, or with tags, fused parts or gaps limits assumed): as the sequence (P78324 other isoform, or with tags, fused parts or gaps mutant limits assumed) above, with H24L counted along it
T6 sequence (P78324 31-504 S105P limits assumed): as the sequence (P78324 31-504 G109S limits assumed) above, with S75P, S79G counted along it

EC50 (read off the curve) [1]: ~0.7 nM
B1: hSIRPα.40A (antibody, mouse IgG1, kappa, V domains shown)
VH: EVQFQQSGTVLARPGTSVKMSCKASGSTFTSYWMHWVKQGPGQGLQWIGAIYPVNNDTTYNQKFKGKAELTVVTSTSTAYMEVSSLTNEDSAVYYCTRSFYYSLDAAWFVYWGQGTLVTVSA
VL: DIQMTQSPSSLSASLGERVSLTCRASQDIGSRLNWLQQEPDGTIKRLIYATSSLDSGVPKRFSGSRSGSDYSLTISGLESEDFVDYYCLQYASSPFTFGGGTKLEINR
notes: mouse antibody, full chains without signal peptide; also called mouse hSIRPα.40A

EC50 (human SIRPα variant 1): 0.936 nM
EC50 (human SIRPα variant 2): 0.665 nM
EC50 (hSIRPαV3 (NA07056_V3)): 0.688 nM
EC50 (hSIRPαV5 (NA18502_V5)): 0.765 nM
EC50 (hSIRPαV6 (NA18507_V6)): 0.954 nM
EC50 (hSIRPαV8 (NA18570_V8)): 0.644 nM
EC50 (hSIRPαV9 (NA18943_V9)): 0.733 nM
B2: hSIRPα.50A (antibody, V domains shown)
VH: QVQLQQSGPELVKPGASVRISCKASGFTFTNYYIHWVKQRPGQGLEWIGWIYPGNVNTKYNEKFKAKATLTADKSSTTAYMQLSSLASEDSAVYFCARPTIIATDFDVWGAGTTVTVSS
VL: DIVMTQSHKFMSTSVGDRVNITCKASQGVGTAVGWYQQKPGQSPRLLIYWASTRHTGVPDRFTGSGSGTDFSLAISNVQSEDLADYFCQQYSTYPFTFGGGTNLEIK
notes: light chain constant domain not tied; also called mouse hSIRPα.50A; hSIRPα.50A.mIgG1
